Laboratory results: publication PMC12259851, “Rapid detection and capture of clinical Escherichia coli strains mediated by OmpA-targeting nanobodies” (Communications Biology, 2025)

Experiments:
[1] = molecular target: T1, OmpF on E. coli K-12 MC1061 cells (Escherichia coli K-12 MC1061, UniProt P02931); assay: flow cytometry on cells; Nb18 on the E. coli K12 strain (Supplementary Fig. 11c); conditions not told for this experiment; conditions: one partner purified
T1 construct: outer membrane protein OmpF, E. coli K-12 MC1061; The homotrimeric state is cited from other work; also called E. coli K12 strain; source: endogenous, on E. coli MC1061 cells

[2] = molecular target: T2, OmpA-short on clinical E. coli strain CS#2 (Escherichia coli clinical isolate CS#2 …, UniProt P0A910, strain); assay: flow cytometry on cells; as a8, CS#2, with the anticoagulant heparin; conditions: one partner purified
T2 construct: OmpA, short isoform, of clinical isolate CS#2; Dense O-antigen layer; source: endogenous, on cells of clinical E. coli isolate CS#2

[3] = molecular target: T3, OmpA-short on clinical E. coli strain CS#1 (Escherichia coli clinical isolate CS#1 …, UniProt P0A910, strain); assay: flow cytometry on cells; concentration series of Nb01-AF647; cells fixed after staining (2% PFA), CytoFlex S, triplicates; Hill equation; apparent affinity (EC50); cells grown in LB; conditions: one partner purified
T3 construct: OmpA, short isoform, of clinical isolate CS#1; Loose, partially permeable O-antigen layer; also called clinical strain #1; source: endogenous, on cells of clinical E. coli isolate CS#1

[4] = molecular target: T4, OmpA-short on E. coli K1 strain ATCC 11775 (Escherichia coli K1 ATCC 11775, strain); assay: as above; conditions: one partner purified
T4 construct: OmpA, short isoform, of E. coli K1 ATCC 11775; loop regions identical to those of MC1061 OmpA-short; Strain with a K1 polysaccharide capsule; also called E. coli K1 OmpA-short; source: endogenous, on cells of E. coli K1 ATCC 11775
T4 chain: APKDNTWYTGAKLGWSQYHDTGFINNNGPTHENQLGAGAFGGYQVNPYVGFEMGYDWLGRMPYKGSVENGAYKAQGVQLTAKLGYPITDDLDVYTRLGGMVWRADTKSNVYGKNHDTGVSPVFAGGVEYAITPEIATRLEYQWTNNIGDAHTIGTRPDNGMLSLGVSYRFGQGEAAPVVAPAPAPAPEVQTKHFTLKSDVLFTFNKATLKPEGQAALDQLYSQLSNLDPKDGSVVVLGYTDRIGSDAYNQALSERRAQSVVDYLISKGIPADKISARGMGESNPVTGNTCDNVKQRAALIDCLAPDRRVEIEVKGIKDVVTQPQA

[5] = molecular target: T2, OmpA-short on clinical E. coli strain …; assay: as above; conditions: one partner purified
[6] = molecular target: T5, OmpA-short on E. coli K-12 MC1061 cells (Escherichia coli K-12 MC1061, UniProt P0A910); assay: as above; conditions: one partner purified
T5 construct: Strain devoid of O-antigen; source: endogenous, on E. coli MC1061 cells

[7] = molecular target: T2, OmpA-short on clinical E. coli strain …; assay: flow cytometry on cells; as a8, CS#2, with EDTA during staining; conditions: one partner purified
[8] = molecular target: T2, OmpA-short on clinical E. coli strain …; assay: flow cytometry on cells; as a8, CS#2, with the anticoagulant citrate phosphate dextrose (CPD); conditions: one partner purified
[9] = molecular target: T6, Transmembrane domain of OmpA-short (Escherichia coli K-12 MC1061, UniProt P0A910); assay: crystal structure; β-barrel domain of OmpA mixed 1:1.1 with the nanobody, sitting drop vapor diffusion at 20 °C; interface analysed with PDBePISA; conditions: both partners purified
T6 construct: OmpA, short isoform, E. coli K-12 MC1061, transmembrane (β-barrel) domain; also called β-barrel domain of OmpA-short

T1 sequence (P02931 23-362): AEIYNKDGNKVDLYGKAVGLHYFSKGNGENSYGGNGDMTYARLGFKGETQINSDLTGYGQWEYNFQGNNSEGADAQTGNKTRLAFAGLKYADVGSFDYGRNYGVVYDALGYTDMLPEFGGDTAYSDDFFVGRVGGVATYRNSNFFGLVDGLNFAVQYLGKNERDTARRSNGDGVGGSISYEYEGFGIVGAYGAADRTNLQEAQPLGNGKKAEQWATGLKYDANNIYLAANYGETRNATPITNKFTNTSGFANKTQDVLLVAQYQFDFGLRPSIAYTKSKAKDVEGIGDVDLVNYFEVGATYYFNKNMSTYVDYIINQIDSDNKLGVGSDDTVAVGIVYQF

B1: Nb18 (for flow cytometry) (VHH)
VHH: QRQLVESGGGLVQAGGSLTLSCSATGTVPRIDAMGWYRRSTGKKREQVASVGRGGRTNYSDSAKGRFTISRNGNTVTLQMTSLKPEDTDVYFCNALKYGRNADYDDYWGRGTRVTVSA
notes: nanobody Nb18 (alpaca VHH against OmpF); the flow cytometry methods speak of Alexa Fluor 647-labeled nanobodies (cysteine at the C-terminus, pSBinit with myc- and His-tag); also called OmpF nanobody
EC50 [1]: 3 nM

B2: Nb01-AF647 (VHH)
VHH: QVQLVESGGGLVQPGGSLRLSCVVSGTGFTFSKSPMSWARQAPGKEREWVSAIFADSSTYYSDSVRGRFTISRDNAKNTVYLQMNNVKPEDTAVYYCGHRRLGKTTYDYRGKGTRVTVSA
notes: nanobody Nb01 (alpaca VHH against OmpA-short); also called AlexaFluor647-labeled Nb01; source: E. coli MC1061 ΔompA (pSBinit), periplasmic extraction, purified (Ni-NTA, SEC), labelled with maleimide-AF647
EC50 [2]: 4.7 nM
EC50 [3]: 25.9 nM
EC50 [4]: 84.9 nM
EC50 [5]: 61.1 nM
EC50 [6]: 12.9 nM
EC50 [7]: 4.98 nM
EC50 [8]: 7.4 nM

B3: Nb01 (for X-ray crystallography) (VHH)
VHH: B2 VHH
notes: nanobody Nb01 (alpaca VHH against OmpA-short); source: E. coli MC1061 ΔompA (pBXNPHM3), purified (Ni-NTA, 3C cleavage, reverse Ni-NTA, SEC)
binding result [9]: binds
